Assay [1] concerns the target turkey β1-adrenergic receptor, engineered thermostabilised construct (modified β44-m23) (turkey (M. gallopavo)) (UniProt P07700). In words: native MS; tβ1AR 5 μM with mini-Gs 6 μM, orciprenaline 2 at 250 μM.
The target in assay [2] is tβ1AR variant with alanine mutations on TM5 (E233A and E236A) (turkey (M. gallopavo)) (UniProt P07700). In words: native MS; tβ1AR with mini-Gα at 1:1.2 molar ratio, 4 °C, at least 20 min, coupling buffer (10 mM HEPES, 10 mM Tris-HCl pH 7.4, 200 mM NaCl, 1 mM MgCl2, 5 mM GDP, 0.05% DDM) with isoprenaline 1 at 25 μM.
Assay [3] concerns the target turkey β1-adrenergic receptor, engineered thermostabilised construct (modified β44-m23) (turkey (M. gallopavo)) (UniProt P07700). In words: native MS; tβ1AR 5 μM with mini-Gs 6 μM, 1-phenyl-2[(propan-2-yl)amino]ethan-1-ol 3 at 250 μM.
Assay [4] has the same target. Description: native MS; tβ1AR 5 μM with mini-Gs 6 μM, isoprenaline derivative 5 at 250 μM.
In a further assay the target is endogenous metal (Zn2+). In words: mass spectrometry (MS) of receptor-mini-Gs complex. The conditions noted are these: metal-binding read on the tβ1AR-mini-Gs complex; mean ± s.d. from three independent experiments; read off a plot.

The values that follow come from article PMC9758051.

In assay [1], “mini-Gs construct R414, engineered minimal Gα subunit (engineered Gαs)” came in with a percent reduction of mini-Gs coupling against isoprenaline 1 of 60%. The percent attenuation of coupling against wild-type tβ1AR in assay [2] came out at 21.2%. For the same substance, the percent attenuation of mini-Gs coupling against isoprenaline 1 in assay [3] was 90%; in assay [4] it was 75%.

Substance “turkey β1-adrenergic receptor, engineered thermostabilised construct (modified β44-m23) (from UniProt P07700) E285A; H286A” yielded an other: inhibition of metal-binding (%) with endogenous metal (Zn2+) of 11%.
